{"source": "paper PMC4245495", "origin": "cited, not measured here", "target": "Uroplakin Ia (UniProt O00322)", "sequence (O00322 whole entry)": "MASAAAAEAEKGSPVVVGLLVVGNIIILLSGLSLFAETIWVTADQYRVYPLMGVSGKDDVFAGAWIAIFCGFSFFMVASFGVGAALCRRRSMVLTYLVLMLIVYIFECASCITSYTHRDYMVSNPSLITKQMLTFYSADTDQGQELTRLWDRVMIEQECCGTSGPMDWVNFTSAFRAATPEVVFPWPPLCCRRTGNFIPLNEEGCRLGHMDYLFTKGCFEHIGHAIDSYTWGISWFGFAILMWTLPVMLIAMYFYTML", "note": "pKd: −log10 of the molar value."}
{"substance": "FimH (from UniProt P08191)", "values": [{"measurement": "pKd", "value": 7.00}]}
